The values that follow come from article doi:10.1101/266833 (bioRxiv, 2018).

The target in this test is T1, yUpf1-HD (220-851) (S. cerevisiae, UniProt P30771 220-851).
T1 sequence (looked up): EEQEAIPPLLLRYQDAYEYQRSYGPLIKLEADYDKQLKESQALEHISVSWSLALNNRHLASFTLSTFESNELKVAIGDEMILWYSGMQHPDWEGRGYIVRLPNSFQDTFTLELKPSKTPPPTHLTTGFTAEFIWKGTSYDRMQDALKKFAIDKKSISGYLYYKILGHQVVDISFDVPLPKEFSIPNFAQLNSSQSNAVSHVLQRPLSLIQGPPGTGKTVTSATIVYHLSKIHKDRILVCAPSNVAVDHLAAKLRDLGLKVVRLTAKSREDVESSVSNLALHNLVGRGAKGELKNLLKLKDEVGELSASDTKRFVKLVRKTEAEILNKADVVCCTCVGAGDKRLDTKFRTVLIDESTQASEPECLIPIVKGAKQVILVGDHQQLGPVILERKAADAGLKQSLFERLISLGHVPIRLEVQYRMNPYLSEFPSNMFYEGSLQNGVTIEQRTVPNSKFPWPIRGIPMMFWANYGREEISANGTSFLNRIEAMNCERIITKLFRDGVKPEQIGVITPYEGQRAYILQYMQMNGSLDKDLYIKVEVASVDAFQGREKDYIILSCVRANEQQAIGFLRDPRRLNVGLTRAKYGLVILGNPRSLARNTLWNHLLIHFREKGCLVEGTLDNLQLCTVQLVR
Briefly: pull-down.

B1: CBP-Nmd4 (natural protein, S. cerevisiae, UniProt Q12129 1-218, looked up)
chain: MTQYNFIIDASAFEKGLGNIKRWCSDCTEAVTLNFYIPTFTLNELDFLQQRRKSFAARESLKFIDRLDDSKFANLKVFIEFPEVLDIILWSDVMEHNDSSGKINIAKLPKRLKNLLKSCIYKCYLEGNEGLHWFLISEDPQIREMAMQCNIPSCSIVDVDSILSKDMNDKSFRESEKFNNMMLKNGTKEESENGREIIRTNFNKTVYASRGTGELWSP
Consider B1, for which the binding result is reported as “binds”.
